Source: article doi:10.1101/2025.09.29.679124 (bioRxiv, 2025)

T1: MBP-His-D53-D2 (718-1131) (rice (Oryza sativa), UniProt Q2RBP2 718-1131)
T1 sequence (looked up): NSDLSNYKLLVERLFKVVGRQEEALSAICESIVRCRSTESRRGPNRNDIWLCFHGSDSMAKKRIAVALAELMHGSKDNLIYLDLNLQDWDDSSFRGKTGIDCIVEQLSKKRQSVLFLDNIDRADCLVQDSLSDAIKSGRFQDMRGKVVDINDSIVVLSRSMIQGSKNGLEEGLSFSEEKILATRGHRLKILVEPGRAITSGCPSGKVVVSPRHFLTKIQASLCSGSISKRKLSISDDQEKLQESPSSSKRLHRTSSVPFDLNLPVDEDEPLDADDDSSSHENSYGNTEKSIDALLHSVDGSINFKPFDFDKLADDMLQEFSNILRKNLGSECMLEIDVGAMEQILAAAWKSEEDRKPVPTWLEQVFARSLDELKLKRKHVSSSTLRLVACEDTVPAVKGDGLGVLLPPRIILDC

T2: MBP-tagged D3 (2-720) co-expressed with untagged ASK1 (rice (Oryza sativa) | Arabidopsis, UniProt Q5VMP0 2-720; Q39255 1-160)
T2 sequence (looked up) 1: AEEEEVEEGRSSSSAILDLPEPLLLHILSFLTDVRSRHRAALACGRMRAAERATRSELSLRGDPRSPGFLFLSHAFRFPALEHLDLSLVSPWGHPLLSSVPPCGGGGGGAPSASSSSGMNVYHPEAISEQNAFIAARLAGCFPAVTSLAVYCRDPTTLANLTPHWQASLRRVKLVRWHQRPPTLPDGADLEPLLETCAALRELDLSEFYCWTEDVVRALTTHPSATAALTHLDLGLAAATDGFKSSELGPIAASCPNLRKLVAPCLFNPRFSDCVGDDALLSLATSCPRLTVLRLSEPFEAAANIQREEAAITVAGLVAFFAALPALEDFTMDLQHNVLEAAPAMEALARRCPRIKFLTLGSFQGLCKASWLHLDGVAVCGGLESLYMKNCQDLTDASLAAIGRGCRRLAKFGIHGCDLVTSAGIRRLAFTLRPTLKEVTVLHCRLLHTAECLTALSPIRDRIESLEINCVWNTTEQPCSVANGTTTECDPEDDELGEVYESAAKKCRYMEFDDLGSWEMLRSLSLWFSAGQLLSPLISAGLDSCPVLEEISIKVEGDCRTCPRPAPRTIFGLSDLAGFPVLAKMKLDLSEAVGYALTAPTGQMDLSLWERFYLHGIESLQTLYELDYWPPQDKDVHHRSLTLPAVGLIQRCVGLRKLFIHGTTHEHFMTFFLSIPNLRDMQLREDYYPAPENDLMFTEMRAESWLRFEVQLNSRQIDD
T2 sequence (looked up) 2: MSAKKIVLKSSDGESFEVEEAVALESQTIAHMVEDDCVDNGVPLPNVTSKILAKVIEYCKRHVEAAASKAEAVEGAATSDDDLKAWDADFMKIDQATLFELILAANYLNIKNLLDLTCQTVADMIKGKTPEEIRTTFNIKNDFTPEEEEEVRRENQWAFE


Columns and labels:
[1] = target: T1, MBP-His-D53-D2 (718-1131); assay: pull-down
[2] = target: T2, MBP-tagged D3 (2-720) co-expressed with …; assay: pull-down

binding result [1]	binding result [2]	Binder
binds		GST-D14 (50-318) (receptor, rice (Oryza sativa), UniProt Q10QA5 50-318, looked up) APSGAKLLQILNVRVVGSGERVVVLSHGFGTDQSAWSRVLPYLTRDHRVVLYDLVCAGSVNPDHFDFRRYDNLDAYVDDLLAILDALRIPRCAFVGHSVSAMIGILASIRRPDLFAKLVLIGASPRFLNDSDYHGGFELEEIQQVFDAMGANYSAWATGYAPLAVGADVPAAVQEFSRTLFNMRPDISLHVCQTVFKTDLRGVLGMVRAPCVVVQTTRDVSVPASVAAYLKAHLGGRTTVEFLQTEGHLPHLSAPSLLAQVLRRALARY
	binds	Glutathione-S-transferase (GST)-tagged D14L (receptor, rice (Oryza sativa), UniProt Q10J20 1-271, looked up) MGIVEEAHNLRVVGEGKRGVIVLAHGFGTDQSVWKHLVPHLVADYRVVLFDTMGAGPTNPDYFDFSRYATLEGYALDLLAILQELRVASCIYVGHSVSAVIGAIASISRPDLFSKLVLLSASPRYLNDVDYYGGFEQEDLDELFEAMGSNYKAWCSGFAPLCVGGDMESVAVQEFSRTLFNIRPDIALSVAQTIFQSDVRSLLPLVTVPCHIVQSTKDLAVPVVVSEYLHKHLGGDSIVEVMPSEGHLPQLSSPDIVIPVLLRHIQHDIAV
